Data set [1] has as its target Theiler's murine encephalomyelitis virus (TMEV) 2A protein (Theiler's murine encephalomyelitis virus (TMEV)). Kind of data set: SEC-MALS; Superdex 75 increase 10/300 GL, 20 mM Tris (HCl) pH 7.5, 1.0 M NaCl, 25°C; 100 µl injected at 3.1, 0.8 and 0.38 mg/ml (200, 51.5 and 24.5 µM); Figure 1B at 3.1 mg/ml; monomer and trimer peaks.
The target of data set [2] is T1, TMEV 2A (Theiler's murine encephalomyelitis …, UniProt P08545 923-1055).
T1 sequence: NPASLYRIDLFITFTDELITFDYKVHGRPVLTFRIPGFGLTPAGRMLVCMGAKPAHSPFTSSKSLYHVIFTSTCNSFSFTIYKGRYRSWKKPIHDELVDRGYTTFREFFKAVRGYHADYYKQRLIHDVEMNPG
Nature of the data set: MST; ~140 mM NaCl; EMSA: 10 mM Tris pH 7.4, ~140 mM NaCl, 2 mM Mg acetate, 1 mM DTT, 5% glycerol, tRNA, 50 nM RNA, 37 C 20 min; MST: buffer stated as 1x of 20 mM Tris pH 7.4/80 mM NaCl/4 mM Mg acetate/2 mM DTT (2x), ~140 mM NaCl final, 5 nM RNA, 25 C; ITC: 50 mM Tris pH 7.4, 400 mM NaCl, 25 C. To be noted: protein: recombinant, tags: GST cleaved (3C protease), N-terminal GPLGS remnant, label: 5' Cy5 (EMSA, MST); for Kd: stem-loop/pseudoknot-like.

The target of data set [3] is T1, TMEV 2A. Nature of the data set: EMSA; ~140 mM NaCl, tRNA; EMSA: 10 mM Tris pH 7.4, ~140 mM NaCl, 2 mM Mg acetate, 1 mM DTT, 5% glycerol, tRNA, 50 nM RNA, 37 C 20 min; MST: buffer stated as 1x of 20 mM Tris pH 7.4/80 mM NaCl/4 mM Mg acetate/2 mM DTT (2x), ~140 mM NaCl final, 5 nM RNA, 25 C; ITC: 50 mM Tris pH 7.4, 400 mM NaCl, 25 C. Particulars: protein: recombinant; tags: GST cleaved (3C protease); N-terminal GPLGS remnant; label: 5' Cy5 (EMSA, MST); hairpin, 7 bp stem.

In data set [4] the target is T1, TMEV 2A. Nature of the data set: EMSA; EMSA: 10 mM Tris pH 7.4, ~140 mM NaCl, 2 mM Mg acetate, 1 mM DTT, 5% glycerol, tRNA, 50 nM RNA, 37 C 20 min; MST: buffer stated as 1x of 20 mM Tris pH 7.4/80 mM NaCl/4 mM Mg acetate/2 mM DTT (2x), ~140 mM NaCl final, 5 nM RNA, 25 C; ITC: 50 mM Tris pH 7.4, 400 mM NaCl, 25 C. Particulars: protein: recombinant, tags: GST cleaved (3C protease), N-terminal GPLGS remnant, label: 5' Cy5.

Data set [5] has as its target T1, TMEV 2A. Kind of data set: ITC; 400 mM NaCl; ~1:1 stoichiometry; EMSA: 10 mM Tris pH 7.4, ~140 mM NaCl, 2 mM Mg acetate, 1 mM DTT, 5% glycerol, tRNA, 50 nM RNA, 37 C 20 min; MST: buffer stated as 1x of 20 mM Tris pH 7.4/80 mM NaCl/4 mM Mg acetate/2 mM DTT (2x), ~140 mM NaCl final, 5 nM RNA, 25 C; ITC: 50 mM Tris pH 7.4, 400 mM NaCl, 25 C. To be noted: protein: recombinant; tags: GST cleaved (3C protease); N-terminal GPLGS remnant; label: 5' Cy5 (EMSA, MST); none (ITC, SEC-MALS); stem-loop/pseudoknot-like.

For the molecule “Theiler's murine encephalomyelitis virus (TMEV) 2A protein (natural protein)”, the stoichiometry N in data set [1] amounted to 3.
For the molecule GCGGUGCUAACUAAAUCCCUAGCACCCCAGGCAGGAA (structured_RNA) [TMEV 2], the binding result with TMEV 2A [2] (hairpin) is given as “no binding”.
For GCGGUGCUAACUAAAUCCCUAGCACCCC (structured_RNA) [TMEV 4], the binding result in the data set with TMEV 2A [3] is “no binding”.
In the case of ACAAGGUGCGGUGCUAACUAAAUCCCUAGCACCCC (structured_RNA) [TMEV 8], the binding result in the data set with TMEV 2A [4] (stem-loop/pseudoknot-like) was “binds”.
As for CCACAAGGUGCGGUGCUAACUAAAUCCCUAGCACCCCAGGCAGGAA (structured_RNA) [TMEV 1], the dissociation constant Kd with TMEV 2A [2] was 484 ± 90 nM.
For the molecule CCACAACGUGCGGUGCUAACUAAAUCCGUAGCACCCCAGGCAGGAA (structured_RNA) [TMEV 1 G17C+C38G], the binding result in the data set with TMEV 2A [4] (compensatory pair 17-38) is reported as “no binding”.
Turning to GGUGCGGUGCUAACUAAAUCCCUAGCACCCC (structured_RNA) [TMEV 12], the binding result with TMEV 2A [4] (stem-loop) is “no binding”.
CCACAAGGUGCGGUGCUAACUAAAUCCCUAGCACCCC (structured_RNA) [TMEV 6]: the Kd with TMEV 2A [5] stood at 67 ± 7 nM; with TMEV 2A [2] (none (ITC, SEC-MALS)), 280 ± 40 nM.
Take GGGUUUUUCAGCCACAAGGUGCGGUGCUAACUAAAUCCCUAGCACCCC (structured_RNA) [TMEV 3]: the dissociation constant (Kd) with TMEV 2A [2] stood at 495 ± 110 nM.
In the case of CACAAGGUGCGGUGCUAACUAAAUCCCUAGCACCCC (structured_RNA) [TMEV 7], the binding result in the data set with TMEV 2A [4] (stem-loop/pseudoknot-like) was “binds”.
CAAGGUGCGGUGCUAACUAAAUCCCUAGCACCCC (structured_RNA) [TMEV 9]: the binding result with TMEV 2A [4] (pseudoknot-like, G17-C38 pair) was “binds”.
Consider CAACGUGCGGUGCUAACUAAAUCCGUAGCACCCC (structured_RNA) [TMEV 9 G17C+C38G], for which, in the data set with TMEV 2A [4] (compensatory pair 17-38), the binding result is given as “no binding”.
CAACGUGCGGUGCUAACUAAAUCCCUAGCACCCC (structured_RNA) [TMEV 9 G17C]: in the data set with TMEV 2A [4] (stem-loop), the binding result is reported as “no binding”.

(Values after paper PMC8599813, “Investigating molecular mechanisms of 2A-stimulated ribosomal pausing and frameshifting in Theilovirus”.)
